B1: Regulator of G-protein signaling 18 (Homo sapiens), Q9NS28 (parent)
chain: METTLLFFSQINMCESKEKTFFKLIHGSGKEETSKEAKIRAKEKRNRLSLLVQKPEFHEDTRSSRSGHLAKETRVSPEEAVKWGESFDKLLSHRDGLEAFTRFLKTEFSEENIEFWIACEDFKKSKGPQQIHLKAKAIYEKFIQTDAPKEVNLDFHTKEVITNSITQPTLHSFDAAQSRVYQLMEQDSYTRFLKSDIYLDLMEGRPQRPTNLRRRSRSFTCNEFQDVQSDVAIWL
B2: Regulator of G-protein signaling 16 (Homo sapiens), O15492 (parent)
chain: MCRTLAAFPTTCLERAKEFKTRLGIFLHKSELGCDTGSTGKFEWGSKHSKENRNFSEDVLGWRESFDLLLSSKNGVAAFHAFLKTEFSEENLEFWLACEEFKKIRSATKLASRAHQIFEEFICSEAPKEVNIDHETHELTRMNLQTATATCFDAAQGKTRTLMEKDSYPRFLKSPAYRDLAAQASAASATLSSCSLDEPSHT
B3: Regulator of G-protein signaling 4 (Homo sapiens), P49798 (parent)
chain: MCKGLAGLPASCLRSAKDMKHRLGFLLQKSDSCEHNSSHNKKDKVVICQRVSQEEVKKWAESLENLISHECGLAAFKAFLKSEYSEENIDFWISCEEYKKIKSPSKLSPKAKKIYNEFISVQATKEVNLDSCTREETSRNMLEPTITCFDEAQKKIFNLMEKDSYRRFLKSRFYLDLVNPSSCGAEKQKGAKSSADCASLVPQCA
B4: Regulator of G-protein signaling 17 (Homo sapiens), Q9UGC6 (parent)
chain: MRKRQQSQNEGTPAVSQAPGNQRPNNTCCFCWCCCCSCSCLTVRNEERGENAGRPTHTTKMESIQVLEECQNPTAEEVLSWSQNFDKMMKAPAGRNLFREFLRTEYSEENLLFWLACEDLKKEQNKKVIEEKARMIYEDYISILSPKEVSLDSRVREVINRNLLDPNPHMYEDAQLQIYTLMHRDSFPRFLNSQIYKSFVESTAGSSSES

In one assay the parent is B1. Particulars: with gnao_rat Gnao1, P59215.
gnao_rat Gnao1, P59215, sequence (P59215 whole entry): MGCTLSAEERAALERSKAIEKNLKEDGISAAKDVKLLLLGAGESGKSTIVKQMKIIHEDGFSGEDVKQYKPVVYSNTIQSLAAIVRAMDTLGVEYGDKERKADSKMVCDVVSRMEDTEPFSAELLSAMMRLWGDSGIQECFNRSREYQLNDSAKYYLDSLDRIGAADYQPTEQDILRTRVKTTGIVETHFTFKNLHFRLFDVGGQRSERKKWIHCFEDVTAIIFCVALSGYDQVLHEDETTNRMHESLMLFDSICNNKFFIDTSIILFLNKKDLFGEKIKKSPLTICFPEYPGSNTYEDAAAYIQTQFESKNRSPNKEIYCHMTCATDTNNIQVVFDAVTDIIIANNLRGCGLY
For METTLLFFSQINMCESKEKTFFKLIHGSGKEETSKEAKIRAKEKRNRLSLLVQKPEFHEDTRSSRSGHLAKETRVSPEEAVKWGESFDKLLSHRDGLEAFTRFLKTEFSEENIEFWIACEDFKKSKGPQQIHLKAKAIYEEFIQTDAPKEVNLDFETREVITNSITQPTLHSFDAAQSRVYQLMEKDSYTRFLKSDIYLDLMEGRPQRPTNLRRRSRSFTCNEFQDVQSDVAIWL [K141E;H156E;K158R;Q186K], the “effect of a mutation on the interaction” value is recorded as “increasing interaction”.
Regarding METTLLFFSQINMCESKEKTFFKLIHGSGKEETSKEAKIRAKEKRNRLSLLVQKPEFHEDTRSSRSGHLAKETRVSPEEAVKWGESFDKLLSHRDGLEAFTRFLKTEFSEENIEFWIACEDFKKSKGPQQIHLKAKAIYEEFIQTDAPKEVNLDFETREVITNSITQPTLHSFDAAQSRVYQLMEQDSYTRFLKSDIYLDLMEGRPQRPTNLRRRSRSFTCNEFQDVQSDVAIWL [K141E;H156E;K158R], the “effect of a mutation on the interaction” value is reported as “increasing interaction”.
Same read-out and setting: the same measure for METTLLFFSQINMCESKEKTFFKLIHGSGKEETSKEAKIRAKEKRNRLSLLVQKPEFHEDTRSSRSGHLAKETRVSPEEAVKWGESFDKLLSHRDGLEAFTRFLKTEFSEENIEFWIACEDFKKSKGPQQIHLKAKAIYEKFIQTDAPKEVNLDFHTKEVITNSITQPTLHSFDAAQSRVYQLMEKDSYTRFLKSDIYLDLMEGRPQRPTNLRRRSRSFTCNEFQDVQSDVAIWL [Q186K]: “increasing interaction”.
Same read-out and setting: with METTLLFFSQINMCESKEKTFFKLIHGSGKEETSKEAKIRAKEKRNRLSLLVQKPEFHEDTRSSRSGHLAKETRVSPEEAVKWGESFDKLLSHRDGLEAFTRFLKTEFSEENIEFWIACEDFKKSKGPQQIHLKAKAIYEKFIQTDAPKEVNLDFETREVITNSITQPTLHSFDAAQSRVYQLMEQDSYTRFLKSDIYLDLMEGRPQRPTNLRRRSRSFTCNEFQDVQSDVAIWL [H156E;K158R] the entry was “increasing interaction”.

Another assay covers variants of B2. As to conditions: with gnao_rat Gnao1, P59215.
In the case of MCRTLAAFPTTCLERAKEFKTRLGIFLHKSELGCDTGSTGKFEWGSKHSKENRNFSEDVLGWRESFDLLLSSKNGVAAFHAFLKTEFSEENLEFWLACEEFKKIRSATKLASRAHQIFEEFICSAAPKAVNIDHETHELTRMNLQTATATCFDAAQGKTRTLMEKDSYPRFLASPAYRDLAAQASAASATLSSCSLDEPSHT [E125A;E129A;K173A], the “effect of a mutation on the interaction” value is “decreasing interaction”.
Consider MCRTLAAFPTTCLERAKEFKTRLGIFLHKSELGCDTGSTGKFEWGSKHSKENRNFSEDVLGWRESFDLLLSSKNGVAAFHAFLKTEFSEENLEFWLACEEFKKIRSATKLASRAHQIFEEFICSAAPKAVNIDHETHELTRMNLQTATATCFDAAQGKTRTLMEKDSYPRFLKSPAYRDLAAQASAASATLSSCSLDEPSHT [E125A;E129A], for which the “effect of a mutation on the interaction” value is listed as “decreasing interaction”.
Same read-out and setting: the same measure for MCRTLAAFPTTCLERAKEFKTRLGIFLHKSELGCDTGSTGKFEWGSKHSKENRNFSEDVLGWRESFDLLLSSKNGVAAFHAFLKTEFSEANLEFWLACEEFKKIRSATKLASRAHQIFEEFICSEAPKEVNIDHETHELTRMNLQTATATCFDAAQGKTRTLMEKDSYPRFLKSPAYRDLAAQASAASATLSSCSLDEPSHT [E90A]: “decreasing interaction”; for MCRTLAAFPTTCLERAKEFKTRLGIFLHKSELGCDTGSTGKFEWGSKHSKENRNFSEDVLGWRESFDLLLSSKNGVAAFHAFLKTEFSEENLEFWLACEEFKKIRSATKLASRAHQIFEEFICSEAPKAVNIDHETHELTRMNLQTATATCFDAAQGKTRTLMEKDSYPRFLKSPAYRDLAAQASAASATLSSCSLDEPSHT [E129A]: “decreasing interaction”.

The next assay covers variants of B3. As to conditions: with gnao_rat Gnao1, P59215.
For N128S, the “effect of a mutation on the interaction” value is listed as “disrupting interaction”.
With R134A, the “effect of a mutation on the interaction” value is recorded as “decreasing interaction”.
For E126A;R134A;R166A, the “effect of a mutation on the interaction” value is “disrupting interaction”.
Take R134A;R166A: the “effect of a mutation on the interaction” value was “decreasing interaction”.

In the next assay the parent is B4. As to conditions: with gnao_rat Gnao1, P59215.
As for MRKRQQSQNEGTPAVSQAPGNQRPNNTCCFCWCCCCSCSCLTVRNEERGENAGRPTHTTKMESIQVLEECQNPTAEEVLSWSQNFDKMMKAPAGRNLFREFLRTEYSEENLLFWLACEDLKKEQNKKVIEEKARMIYEDYISSEAPKEVNLDSRVREVINRNLLDPNPHMYEDAQLQIYTLMHRDSFPRFLKSQIYKSFVESTAGSSSES [I143S;L144E;S145A;S150N;N192K], the “effect of a mutation on the interaction” value is on record as “increasing interaction”.
Still for that read-out and setting: with MRKRQQSQNEGTPAVSQAPGNQRPNNTCCFCWCCCCSCSCLTVRNEERGENAGRPTHTTKMESIQVLEECQNPTAEEVLSWSQNFDKMMKAPAGRNLFREFLRTEYSEENLLFWLACEDLKKEQNKKVIEEKARMIYEDYISSEAPKEVNLDSRVREVINRNLLDPNPHMYEDAQLQIYTLMEKDSFPRFLKSQIYKSFVESTAGSSSES [I143S;L144E;S145A;S150N;H183E;R184K;N192K] the entry was “increasing interaction”.

The values are drawn from IntAct's records for PubMed 21685921.
